Values of other authors, collected in PMC5319408.

Biological target: cytochrome P450cam (CYP101, oxidized) (Pseudomonas putida) (UniProt P00183)
Sequence of UniProt P00183 (P00183 2-415): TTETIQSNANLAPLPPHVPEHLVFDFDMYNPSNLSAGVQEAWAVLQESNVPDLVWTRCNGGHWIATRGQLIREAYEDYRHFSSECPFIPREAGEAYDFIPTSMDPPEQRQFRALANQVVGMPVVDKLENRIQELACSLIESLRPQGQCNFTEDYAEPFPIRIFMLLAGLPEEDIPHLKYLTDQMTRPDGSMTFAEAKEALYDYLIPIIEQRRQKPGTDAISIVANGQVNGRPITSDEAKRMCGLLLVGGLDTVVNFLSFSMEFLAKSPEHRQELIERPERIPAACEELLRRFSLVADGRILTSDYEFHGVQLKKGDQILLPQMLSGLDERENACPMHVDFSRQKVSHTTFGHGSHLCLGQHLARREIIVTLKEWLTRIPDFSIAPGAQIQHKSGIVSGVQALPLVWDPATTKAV

Substance: putidaredoxin (oxidized) (from UniProt P00259)
- Kd: 17 µM
